The values that follow are results of earlier work, collected in doi:10.1101/2025.09.24.678334.

The target in this series is TATA-binding protein (Homo sapiens) (UniProt P20226).
UniProt P20226, sequence (P20226 whole entry): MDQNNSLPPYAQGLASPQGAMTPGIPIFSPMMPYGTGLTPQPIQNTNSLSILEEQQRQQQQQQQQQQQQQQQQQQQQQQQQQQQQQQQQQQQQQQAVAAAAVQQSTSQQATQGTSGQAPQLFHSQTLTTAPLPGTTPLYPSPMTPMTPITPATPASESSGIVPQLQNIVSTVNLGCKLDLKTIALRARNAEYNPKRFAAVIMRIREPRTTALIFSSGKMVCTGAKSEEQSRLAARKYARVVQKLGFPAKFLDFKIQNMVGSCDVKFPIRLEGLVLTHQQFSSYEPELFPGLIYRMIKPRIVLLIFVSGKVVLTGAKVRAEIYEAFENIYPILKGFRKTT

By Kd is commonly meant the free concentration of one partner at which half of the binding sites on the other are occupied at equilibrium, for simple one-to-one binding. Importin 9 (from UniProt Q96P70): the Kd is 1 nM.
